{"source": "paper doi:10.1101/2025.07.29.667382", "about": "(bioRxiv, 2025)", "key": {"[1]": {"molecular_target": "Retromer^mClover (Vps26-Vps29-Vps35, carrying mClover on Vps29) (yeast, UniProt P40335;P38759;P34110)", "sequence (P40335 whole entry, chain 1 of 3)": "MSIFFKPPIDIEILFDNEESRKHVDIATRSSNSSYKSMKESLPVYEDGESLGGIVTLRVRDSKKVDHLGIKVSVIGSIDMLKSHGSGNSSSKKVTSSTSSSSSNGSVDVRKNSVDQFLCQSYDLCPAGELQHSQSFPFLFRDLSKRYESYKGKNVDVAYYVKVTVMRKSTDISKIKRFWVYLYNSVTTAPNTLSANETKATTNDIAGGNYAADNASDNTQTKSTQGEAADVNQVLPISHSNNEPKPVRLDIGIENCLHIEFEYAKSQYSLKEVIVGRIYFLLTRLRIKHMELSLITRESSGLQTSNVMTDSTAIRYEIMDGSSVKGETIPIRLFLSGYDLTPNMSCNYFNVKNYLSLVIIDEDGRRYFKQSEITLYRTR", "sequence (P38759 whole entry, chain 2 of 3)": "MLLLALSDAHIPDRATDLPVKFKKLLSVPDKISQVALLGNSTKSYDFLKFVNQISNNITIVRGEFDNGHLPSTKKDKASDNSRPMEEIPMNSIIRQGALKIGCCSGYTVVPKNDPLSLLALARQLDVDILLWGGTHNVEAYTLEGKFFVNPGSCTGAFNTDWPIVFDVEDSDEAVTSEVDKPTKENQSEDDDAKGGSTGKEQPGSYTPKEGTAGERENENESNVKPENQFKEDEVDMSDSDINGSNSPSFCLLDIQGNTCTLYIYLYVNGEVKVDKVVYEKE", "sequence (P34110 whole entry, chain 3 of 3)": "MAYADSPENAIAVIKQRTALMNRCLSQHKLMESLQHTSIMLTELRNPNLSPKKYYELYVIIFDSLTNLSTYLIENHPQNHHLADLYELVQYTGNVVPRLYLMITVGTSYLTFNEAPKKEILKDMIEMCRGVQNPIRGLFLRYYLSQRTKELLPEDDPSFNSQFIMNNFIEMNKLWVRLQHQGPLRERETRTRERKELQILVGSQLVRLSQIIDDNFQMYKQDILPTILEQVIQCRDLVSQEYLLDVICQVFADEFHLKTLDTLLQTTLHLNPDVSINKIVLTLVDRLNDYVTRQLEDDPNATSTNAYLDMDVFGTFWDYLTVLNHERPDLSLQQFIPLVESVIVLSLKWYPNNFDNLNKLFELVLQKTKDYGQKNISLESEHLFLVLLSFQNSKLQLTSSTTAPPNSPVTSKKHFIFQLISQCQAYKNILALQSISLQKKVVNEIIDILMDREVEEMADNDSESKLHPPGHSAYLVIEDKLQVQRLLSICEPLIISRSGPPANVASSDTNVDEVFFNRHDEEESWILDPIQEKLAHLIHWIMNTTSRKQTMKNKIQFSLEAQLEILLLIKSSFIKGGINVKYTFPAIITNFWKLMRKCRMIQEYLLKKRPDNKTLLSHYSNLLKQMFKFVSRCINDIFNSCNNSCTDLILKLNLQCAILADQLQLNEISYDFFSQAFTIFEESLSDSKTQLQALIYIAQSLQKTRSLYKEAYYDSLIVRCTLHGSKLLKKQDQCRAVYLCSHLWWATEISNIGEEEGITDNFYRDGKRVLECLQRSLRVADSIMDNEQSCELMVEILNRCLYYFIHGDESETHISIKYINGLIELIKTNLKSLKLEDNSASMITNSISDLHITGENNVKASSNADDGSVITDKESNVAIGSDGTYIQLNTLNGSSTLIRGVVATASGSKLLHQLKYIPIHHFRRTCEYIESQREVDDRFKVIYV", "experiment": "coat formation on supported membrane tubes, fluorescence microscopy"}, "[2]": {"molecular_target": "T1, Snx3 (recombinant, without fluorescent tag) (yeast, UniProt Q08826 1-162)", "T1 sequence": "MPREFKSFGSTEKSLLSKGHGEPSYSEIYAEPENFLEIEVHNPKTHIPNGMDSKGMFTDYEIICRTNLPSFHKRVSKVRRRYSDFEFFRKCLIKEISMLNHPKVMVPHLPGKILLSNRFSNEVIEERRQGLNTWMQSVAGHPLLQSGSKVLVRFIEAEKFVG", "experiment": "coat formation on supported membrane tubes, fluorescence microscopy"}}, "note": "Groups on a side chain read outwards from the residue. No end group written: not given here. Alexa‑547 = not defined here"}
{"binder": "SNX-BAR (Vps5-Vps17) (complex) chain 1: MDYEDNLEAPVWDELNHEGDKTQSLVSNSIESIGQISTNEERKDNELLETTASFADKIDLDSAPEWKDPGLSVAGNPQLEEHDNSKADDLINSLAPEQDPIADLKNSTTQFIATRESGGALFTGNANSPLVFDDTIYDANTSPNTSKSISGRRSGKPRILFDSARAQRNSKRNHSLKAKRTTASDDTIKTPFTDPLKKAEKENEFVEEPLDDRNERRENNEGKFTASVEKNILEQVDRPLYNLPQTGANISSPAEVEENSEKFGKTKIGSKVPPTEKAVAFKVEVKDPVKVGELTSIHVEYTVISESSLLELKYAQVSRRYRDFRWLYRQLQNNHWGKVIPPPPEKQSVGSFKENFIENRRFQMESMLKKICQDPVLQKDKDFLLFLTSDDFSSESKKRAFLTGSGAINDSNDLSEVRISEIQLLGAEDAAEVLKNGGIDAESHKGFMSISFSSLPKYNEADEFFIEKKQKIDELEDNLKKLSKSLEMVDTSRNTLAASTEEFSSMVETLASLNVSEPNSELLNNFADVHKSIKSSLERSSLQETLTMGVMLDDYIRSLASVKAIFNQRSKLGYFLVVIENDMNKKHSQLGKLGQNIHSEKFREMRKEFQTLERRYNLTKKQWQAVGDKIKDEFQGFSTDKIREFRNGMEISLEAAIESQKECIELWETFYQTNL chain 2: MTSAVPYDPYDDLDNNPFAEPQEEDSEPAATTTDGSSSMSEERVGTEQTAASVQDNGTANNIQNGLGEEGNATRSKTSNEHNENQQPSQPSERVILPERSDEKKKYTLLAKVTGLERFGSATGKKENPTIIFDCSTNLPTFRKQQYKNVKKSYEEFHQLFKYLNVAIQESFVPTLPSAYTTFGINSEEDRMKVTRNFQLWFNRLSQDPLIIRNEEVAFFIESDFNTYTPINKSKSLASGLKRKTLKQLAPPYDEITELAEFRPLVKSIYVVSQSLQEKLLRVSRNRKMMVQEENAFGQDFVNLDEHNKLYRRYGKILTAVGDIDSIIATMDMATLYDGLEWIVRDAYAVKEALTNRHFIMRNLVQAQQNSKAKQEQARRFRSRRDINPMKIDEALRQLKAAAKNEQVLTLKLQRITSNMIIERKQWISWYEEWIRSSIKEFTLRKIEYERKKLTLLERVRSDIRKADENGGLSRLGRHAVSNNNSDTSQTLKGDSWTGESNRKSQIPINKIAHTEFDDELFTEDDGYNSQDSDTTSLNARHAASLLGMSTK", "values": [{"measurement": "binding result", "setting": "[1]", "value": "binds"}]}
{"binder": "GGGGGKKIINEEINLDSLGGC([maleimide-Alexa‑547]) (reading uncertain)", "note": "[Ear1^547 (fluorescent Alexa-547-labelled Ear1 peptide)]", "values": [{"measurement": "binding result", "setting": "[1]", "value": "binds"}, {"measurement": "binding result", "setting": "[2]", "value": "binds"}]}
